From US6872803 (Kyowa Kirin, dated 2005)
[ ]: non-standard residue; d: D form.

T1: Bovine lung-derived ANP receptor (bovine)
T1 chain: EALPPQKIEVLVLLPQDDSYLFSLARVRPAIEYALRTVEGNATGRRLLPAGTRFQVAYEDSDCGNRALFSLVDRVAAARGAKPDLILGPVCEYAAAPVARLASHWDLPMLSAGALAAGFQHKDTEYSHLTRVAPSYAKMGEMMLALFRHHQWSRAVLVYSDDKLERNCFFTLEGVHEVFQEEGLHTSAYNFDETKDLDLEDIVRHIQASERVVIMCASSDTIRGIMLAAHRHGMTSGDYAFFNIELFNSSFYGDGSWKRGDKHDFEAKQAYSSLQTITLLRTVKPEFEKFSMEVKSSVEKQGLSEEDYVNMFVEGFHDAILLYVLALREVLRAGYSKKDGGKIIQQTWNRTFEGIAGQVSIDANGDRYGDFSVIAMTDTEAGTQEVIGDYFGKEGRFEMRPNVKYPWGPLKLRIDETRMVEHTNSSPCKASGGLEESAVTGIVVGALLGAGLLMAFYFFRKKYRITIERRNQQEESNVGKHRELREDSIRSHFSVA

B1: Compound (i), H-Phe-Gly-Gly-D-Arg-Ile-Asp-Arg-Ile-NH2 (peptide)
peptide: H-FGG[dR]IDRI-NH2
SMILES: CC[C@H](C)[C@H](NC(=O)[C@H](CCCNC(=N)N)NC(=O)[C@H](CC(=O)O)NC(=O)[C@@H](NC(=O)[C@@H](CCCNC(=N)N)NC(=O)CNC(=O)CNC(=O)[C@@H](N)Cc1ccccc1)[C@@H](C)CC)C(N)=O

What was measured:
[1] = biological target: T1, Bovine lung-derived ANP receptor; assay: displacement of 125I-rat ANP from bovine lung membrane fraction, filter binding
[2] = biological target: T2, protein-farnesyltransferase derived from bovine brains (bovine, UniProt P29702 2-375; P49355 1-437); assay: cell-based or functional assay
[3] = biological target: T2, protein-farnesyltransferase derived …; assay: cell-based or functional assay; remark: listed apart in the source

Row | Binder | IC50 [1] [µM] | IC50 (µM), transfer of [3H]-farnesyl diphosphate to Ras protein (v-Ki-Ras p21) [2] [µM] | IC50 (µM), intake of [3H]-farnesyl diphosphate by biotin-lamin-B peptide (SPA enzyme assay kit) [3] [µM]
1 | H-FGGRIDRI-NH2 [Compound (g), H-Phe-Gly-Gly-Arg-Ile-Asp-Arg-Ile-NH2] | 0.0035 |  | 
2 | H-SMGLPCVVM-OH [Compound (d), H-Ser-Met-Gly-Leu-Pro-Cys-Val-Val-Met-OH] |  | 1.6 | 1.2
3 | H-SSGCVLS-OH [Compound (e), H-Ser-Ser-Gly-Cys-Val-Leu-Ser-OH] |  | 10 | 
4 | H-AFGGRIDRIGAA-NH2 [Compound (h), H-Ala-Phe-Gly-Gly-Arg-Ile-Asp-Arg-Ile-Gly-Ala-Ala-NH2] | 0.0025 |  | 
5 | H-SMGLPCIFM-OH [Compound (f), H-Ser-Met-Gly-Leu-Pro-Cys-Ile-Phe-Met-OH] |  | 21 | 
6 | B1 | 0.21 |  | 
